B1: Clathrin heavy chain fused to mScarlet (Chc-mScarlet), wild type [Saccharomyces cerevisiae] / Ent2 endogenously tagged with mNeonGreen (Ent2-mNeonGreen) [Saccharomyces cerevisiae (endogenous in MK100)] (parent complex)
chain 1: MSDLPIEFTELVDLMSLGISPQFLDFRSTTFESDHFVTVRETKDGTNSVAIVDLAKGNEVTRKNMGGDSAIMHPSQMVISVRANGTIVQIFNLETKSKLKSFTLDEPVIFWRWLSETTLGFVTARSILTSNVFDGNVNAKPQLLTLRHANLNNTQIINFVANKNLDWFAVVGILQENGRIAGRIQLFSKQRNISQAIDGHVAIFTNILLEGNGSTPVQVFVTGNRNATTGAGELRIIEIDHDASLPSQYQKETTDIFFPPDATNDFPIAVQVSEKYGIIYLLTKYGFIHLYELETGTNLFVNRITAESVFTAAPYNHENGIACINKKGQVLAVEISTSQIVPYILNKLSNVALALIVATRGGLPGADDLFQKQFESLLLQNDYQNAAKVAASSTSLRNQNTINRLKNIQAPPGAISPILLYFSTLLDKGKLNKEETIELARPVLQQDRKQLFEKWLKEDKLECSEELGDIVKPFDTTLALACYLRAGAHAKVISCLAELQQFEKIIPYCQKVGYQPNFLVLISSLIRSSPDRASEFAVSLLQNPETASQIDIEKIADLFFSQNHIQQGTSLLLDALKGDTPDQGHLQTRVLEVNLLHAPQVADAILGNNIFSHYDKPTIASLSEKAGLYQRALENYTDIKDIKRCVVHTNALPIDWLVGYFGKLNVEQSLACLKALMDNNIQANIQTVVQVATKFSDLIGPSTLIKLFEDYNATEGLYYYLASLVNLTEDKDVVYKYIEAAAKMKQYREIERIVKDNNVYDPERVKNFLKDANLEDQLPLVIVCDRFDFVHEMILYLYKSQNLKFIETYVQQVNPSKTAQVVGALLDMDCDEAFIQSLLQSVLGQVPINELTTEVEKRNRLKILLPFLEQSLSQGIQDQAVYNALAKIYIDSNNSPEKFLKENDQYDTLDVGHYCEKRDPYLAYIAYEKGQNDDDLIRITNENSMYKYQARYLLERSDLDLWNKVLNQENIHRRQLIDSVISVGIPELTDPEPVSLTVQAFMTNGLKLELIELLEKIILEPSPFNENVALQGLLLLSAIKYEPTKVSSYIEKLDNYDADEIAPLCIEHDLKEEAFEIYDKHEMYGKALKVLIEDIMSLDRAASYADKINTPELWSQIGTAQLDGLRIPDAIESYIKAEDPSNYENVIDIAEQAGKYEELIPFLLMARKTLKEPKIDGALILAYAELNKIHEIENLLAGSNVANLDHVGDKLFENKEYKAARLCYSAVSNYSKLASTLVYLGDYQAAVDTARKASNIKVWKLVNDACIEKKEFKLAQICGLNLIVHAEELDELVERYESNGYFEELISLFEAGLGLERAHMGMFTELAILYSKYEPDKTFEHLKLFWSRINIPKVIRAVEQAHLWSELVFLYAHYDEWDNAALTLIEKSTKDLDHAYFKEVVVKVSNLEIYYKAINFYVKFHPSLLVDLLTSLTPRLDIPRTVKIFSKSDNLPLIKPFLINVLPKNNSVVNQAYHDLMIEEEDYKALQDAVDSYDKFDQLGLASRLESHKLIFFKKIGALLYRRNKKWAKSLSILKEEKLWKDAIETAAISQDPKVVEALLTYFVETGNREGFVALLYAAYNLVRIEFVLEISWMNSLEDYIKPFEISIKKEQNDSIKKITEELAKKSGSNEEHKDGQPLMLMNSAMNVQPTGF
chain 2: MSKQFVRSAKNMMKGYSSTQVLVRDATANDSRTPSIDTLDDLAQRSYDSVDFFEIMDMLDKRLNDKGKYWRHVAKSLTVLDYLVRFGSENCVLWCRENFYVIKTLREFRHENESGFDEGQIIRVKAKELVSLLNDEERLREERSMNTRNRRANRAARPRPRRQRTRSNPHDSSPSYQDDLEKALEESRITAQEDEQRRRELAQYDDEDPDFQAALQLSKEEEELKQLQELQRLQKQQQSLSQFQAPLQQQQPQQQPAYYDIFGNPISQDEYLQYQYQQDQEQAMAQQRWLDQQQEQQQLAEQQYFQQQQQAAAAASALQQQQTAANMQQQQQQPADFQQPLPTGSNNPFSMDNLERQKQEQQHAQLQRQQEEARQQQEQLKLQQLQRQQQEEAQLHQKRQEEAQLQQQQAQLLQQQAQFQQQQPLKQTRTGNQSISDKYSDLNTLLATGTGIDTFGNTGEARIPAQHTKTGTFINSQGTGYKQVTNEPKNNPFLSNQYTGLPSTNIVPTQTGYGFGNQPQSPPTNSPQQNPTGISYSQPQQQQQPQQQPQYMQNFQQQQPQYAQNFQQQPQYTQNYQQQPQYIQPHQQQQQQQQQQQQQQGYTPDQGVSLIDL
B2: Clathrin heavy chain fused to mScarlet (Chc-mScarlet), wild type [Saccharomyces cerevisiae] / Ent1 endogenously tagged with mNeonGreen (Ent1-mNeonGreen) [Saccharomyces cerevisiae (endogenous in MK100)] (parent complex)
chain 1: B1 chain 1
chain 2: MSKQFVRSAKNLVKGYSSTQVLVRNATSNDNHQVSKDSLIELAEKSYDSADFFEIMDMLDKRLNDKGKYWRHIAKALTVIDYLIRFGSENCVLWCRENLYIIKTLKEFRHEDDEGIDQGQIVRVKAKELTALLSDDERLNEERNMNIKGRNRKGRRRRGTGRSDENDDDLQRAISASRLTAEEDERRRKQDEDYETALQLSKEEEELKRLQDLQRMQQQQGQQQLQQPMYYDIFGNPITPEEYAQFQLQQQQQQQQQQLQQQPMYYDVFGNPITPEELAQFQQQQQLQEQQYLASMQQQQQAMSNNPFAKSEQSSSSPKRNQLVAASSPQQLQQQKQQEPLIQNRTGNQSMTDKYSKLNELLATGTGIDTFGNVGEARIPAQHTKTGTFINSQGTGYRQVSDDPNHNPFLNSQYTGLPSTSVVPTQTGYGFGNQSQQQSQNNGSNNRGYTLIDL

Variants of: B1
Assay: FRET acceptor photobleaching (in vivo); room temperature (21 °C); trimmed mean; n = 126; parent: 9.02

response | Variant
10.1% | chain 1 F26A, chain 1 Q155A

Variants of: B1
Assay: FRET acceptor photobleaching (in vivo); room temperature (21 °C); trimmed mean; n = 117; parent: 9.02

response | Variant
7.18% | chain 1 F26A, chain 1 K63E, chain 1 I87D, chain 1 Q89A, chain 1 K98E, chain 1 Q155A

Variants of: B1
Assay: FRET acceptor photobleaching (in vivo); room temperature (21 °C); trimmed mean; n = 127; parent: 9.02

response | Variant
7.03% | chain 1 F26A, chain 1 K63E, chain 1 I87D, chain 1 Q89A, chain 1 K98E, chain 1 Q155A, chain 1 Q195A, chain 1 I197T, chain 1 K251E

Variants of: B1
Assay: FRET acceptor photobleaching (in vivo); room temperature (21 °C); trimmed mean; n = 98; parent: 9.02

response | Variant
9.99% | chain 1 K63E, chain 1 I87D, chain 1 Q89A, chain 1 K98E

Variants of: B2
Assay: FRET acceptor photobleaching (in vivo); room temperature (21 °C); trimmed mean; n = 102; parent: 7.87

response | Variant
8.6% | chain 1 Q195A, chain 1 I197T, chain 1 K251E

Variants of: B2
Assay: FRET acceptor photobleaching (in vivo); room temperature (21 °C); trimmed mean; n = 98; parent: 7.87

response | Variant
8.23% | chain 1 F26A, chain 1 Q155A

Variants of: B2
Assay: FRET acceptor photobleaching (in vivo); room temperature (21 °C); trimmed mean; n = 103; parent: 7.87

response | Variant
8.19% | chain 1 F26A, chain 1 Q155A, chain 1 Q195A, chain 1 I197T, chain 1 K251E
